# From US20160137696A1 (Bristol-Myers Squibb, published 2016)
# Starred links: 1 amine or outer side, 2 acyl side, 3 side chain; linkers in the order of their positions; H or OH if unused. Positions of bridges follow the written chain, without caps; N, C: chain ends. Non-standard residues stand in square brackets, D forms with d. Groups on a side chain read outwards from the residue. Primed or numbered codes have the meaning given here. No end group written: not given here. *: point of attachment. PEG8′ = PEG8 unit (23-azido-3,6,9,12,15,18,21-heptaoxatricosyl, i.e. an eight-unit PEG spacer) linking the triazole to vitamin E succinate; PEG11′ = PEG11 spacer (eleven ethylene glycol units, 3,6,...,33-undecaoxa) between the triazole and gamma-Glu-C18 diacid; PEG6′ = PEG6 spacer (17-azido-3,6,9,12,15-pentaoxaheptadecyl) linking the triazole to vitamin E succinate; Pra″ = its azide, alkyne or alkene has reacted where a group follows in round brackets; Pra(3) = propargylglycine, clicked to an azide to give a triazolyl-alanine; triazole = 1,2,3-triazole formed by click of the Pra alkyne with the azide; Trp(1-CH2CO) = O=C([C@H](Cc1cn(CC(=O)[*:3])c2ccccc12)N[*:1])[*:2]; Phe(3,4,5-F3) = N[C@@H](Cc1cc(F)c(F)c(F)c1)C(=O)O; C18 diacid = O=C(O)CCCCCCCCCCCCCCCCC(=O)*; γGlu = O=C(O)[C@H](CCC(=O)[*:2])N[*:1]; Aha = [N-]=[N+]=NCC[C@H](N)C(=O)O; Hyp = O=C(O)[C@@H]1C[C@@H](O)CN1; NMeF = CN[C@@H](Cc1ccccc1)C(=O)O; F3Phe = trifluoro-phenylalanine; NMeE = CN[C@@H](CCC(=O)O)C(=O)O; NMeNle = CCCC[C@H](NC)C(=O)O; Suc = O=C(CCC(=O)[*:2])[*:1]; triazole″ = not defined here; Bzt = benzothienylalanine; NMeA = CN[C@@H](C)C(=O)O; Orn = NCCC[C@H](N)C(=O)O; PEG4′ = not defined here; Pra = C#CC[C@H](N)C(=O)O; Dap = NC[C@H](N)C(=O)O; Sar = CNCC(=O)O
# B1: Example 14056 (peptide)
# peptide: YADPHKPWKWXXECGXD
# modifications: as m107 (INT 1400B); Pra triazole-linked to vitamin E succinate 5-azidopentylamide
# B2: Example 14054 (peptide)
# peptide: YADPHQPWSWXXECGXG
# modifications: as m108 (INT 1400C); Pra triazole-linked to vitamin E succinate 5-azidopentylamide
# B3: Example 14087 (peptide)
# peptide: FFXPDVFXPWYLCGX
# modifications: as m16 (INT 1400K); Pra triazole-linked to vitamin E succinate 5-azidopentylamide
# B4: Example 14051 (peptide)
# peptide: YADPHKPWKWXXECGXG
# modifications: as m106 (INT 1400A); Pra triazole-linked to vitamin E succinate 5-azidopentylamide
# B5: INT-1400F (peptide)
# peptide: {CH2CO}-Y[NMeA]DPHK[Hyp]WKW[NMeNle][NMeNle]ECG[Pra]
# modifications: thioether N-14; not fully specified (C-terminus); printed as ClAc-Tyr-mAla-Asp-Pro-His-Lys-Hyp-Trp-Lys-Trp-mNle-mNle-Glu-Cys-Gly-[(S)-propargylglycine]
# notes: also called Intermediate 1400F
# B6: INT-1400A (peptide)
# peptide: {CH2CO}-Y[NMeA]DPHK[Hyp]WKW[NMeNle][NMeNle]ECG[Pra]G
# modifications: thioether N-14; not fully specified (C-terminus); printed as ClAc-Tyr-mAla-Asp-Pro-His-Lys-Hyp-Trp-Lys-Trp-mNle-mNle-Glu-Cys-Gly-[(S)-propargylglycine]-Gly
# notes: also called Intermediate 1400A
# B7: INT-1400B (peptide)
# peptide: {CH2CO}-Y[NMeA]DPHK[Hyp]WKW[NMeNle][NMeNle]ECG[Pra]D
# modifications: thioether N-14; not fully specified (C-terminus); printed as ClAc-Tyr-mAla-Asp-Pro-His-Lys-Hyp-Trp-Lys-Trp-mNle-mNle-Glu-Cys-Gly-[(S)-propargylglycine]-Asp
# notes: also called Intermediate 1400B
# B8: INT-1400E (peptide)
# peptide: {CH2CO}-Y[NMeA]DPHK[Hyp]WK[Trp(1-CH2CO)][NMeNle][NMeNle]ECG[Pra]D
# modifications: thioether N-14; not fully specified (C-terminus); printed as ClAc-Tyr-mAla-Asp-Pro-His-Lys-Hyp-Trp-Lys-“Trp”-mNle-mNle-Glu-Cys-Gly-[(S)-propargylglycine]-Asp
# notes: also called Intermediate 1400E
# B9: INT-1300Y (peptide)
# peptide: {CH2CO}-Y[NMeA]DPHK[Hyp]WK[Trp(1-CH2CO)][NMeNle][NMeNle]ECG[Pra]-OH
# modifications: thioether N-14
# SMILES: C#CC[C@H](NC(=O)CNC(=O)[C@@H]1CSCC(=O)N[C@@H](Cc2ccc(O)cc2)C(=O)N(C)[C@@H](C)C(=O)N[C@@H](CC(=O)O)C(=O)N2CCC[C@H]2C(=O)N[C@@H](Cc2c[nH]cn2)C(=O)N[C@@H](CCCCN)C(=O)N2C[C@H](O)C[C@H]2C(=O)N[C@@H](Cc2c[nH]c3ccccc23)C(=O)N[C@@H](CCCCN)C(=O)N[C@@H](Cc2cn(CC(=O)O)c3ccccc23)C(=O)N(C)[C@@H](CCCC)C(=O)N(C)[C@@H](CCCC)C(=O)N[C@@H](CCC(=O)O)C(=O)N1)C(=O)O
# notes: also called Intermediate 1300Y
# B10: INT-1400G (peptide)
# peptide: {CH2CO}-Y[NMeA]NP[Dap]L[Hyp]WSW[NMeNle][NMeNle]RCG[Pra]
# modifications: thioether N-14; not fully specified (C-terminus); printed as ClAc-Tyr-mAla-Asn-Pro-Dap-Leu-Hyp-Trp-Ser-Trp-mNle-mNle-Arg-Cys-Gly-[(S)-propargylglycine]
# notes: also called Intermediate 1400G
# B11: INT-1400K (peptide)
# peptide: {CH2CO}-[F3Phe][NMeF][NMeNle][dP]DV[NMeF][Orn][dP]WYLCG[Pra]
# modifications: thioether N-13; not fully specified (C-terminus); printed as ClAc-F3Phe-mPhe-mNle-dPro-Asp-Val-mPhe-Orn-dPro-Trp-Tyr-Leu-Cys-Gly-[(S)-propargylglycine]
# notes: also called Intermediate 1400K
# B12: INT-1400C (peptide)
# peptide: {CH2CO}-Y[NMeA]DPHQ[Hyp]WSW[NMeNle][NMeNle]ECG[Pra]G
# modifications: thioether N-14; not fully specified (C-terminus); printed as ClAc-Tyr-mAla-Asp-Pro-His-Gln-Hyp-Trp-Ser-Trp-mNle-mNle-Glu-Cys-Gly-[(S)-propargylglycine]-Gly
# notes: also called Intermediate 1400C
# B13: INT-1400D (peptide)
# peptide: {CH2CO}-Y[NMeA]DPHK[Hyp]WK[Trp(1-CH2CO)][NMeNle][NMeNle]ECG[Pra]G
# modifications: thioether N-14; not fully specified (C-terminus); printed as ClAc-Tyr-mAla-Asp-Pro-His-Lys-Hyp-Trp-Lys-“Trp”-mNle-mNle-Glu-Cys-Gly-[(S)-propargylglycine]-Gly
# B14: Example 3619 (peptide)
# peptide: {CH2CO}-F[NMeF][NMeNle][Sar]DV[NMeF]Y[NMeE]WYLCGGGK-NH2
# modifications: thioether N-13
# SMILES: CCCC[C@H]1C(=O)N(C)CC(=O)N[C@@H](CC(=O)O)C(=O)N[C@@H](C(C)C)C(=O)N(C)[C@@H](Cc2ccccc2)C(=O)N[C@@H](Cc2ccc(O)cc2)C(=O)N(C)[C@@H](CCC(=O)O)C(=O)N[C@@H](Cc2c[nH]c3ccccc23)C(=O)N[C@@H](Cc2ccc(O)cc2)C(=O)N[C@@H](CC(C)C)C(=O)N[C@H](C(=O)NCC(=O)NCC(=O)NCC(=O)N[C@@H](CCCCN)C(N)=O)CSCC(=O)N[C@@H](Cc2ccccc2)C(=O)N(C)[C@@H](Cc2ccccc2)C(=O)N1C
# notes: order read from the list of couplings, which runs from C- to N-terminus
# B15: Example 3214 (peptide)
# peptide: {CH2CO}-[Phe(3,4,5-F3)][NMeF][NMeNle]PDV[NMeF]Y[NMeE]WYLCGGGK-NH2
# modifications: thioether N-13; not fully specified (residue 4); printed as ClAc-Phe(3,4,5-tri-F)-[N-Me]Phe-[N-Me]Nle-cis-(D)-Pro(4-OH)-Asp-Val-[N-Me]Phe-Tyr-[N-Me]Glu-Trp-Tyr-Leu-Cys-Gly-Gly-Gly-Lys
# notes: as for B14
# B16: INT-1400H (peptide)
# peptide: {CH2CO}-Y[NMeA]DPHQ[Hyp]WSW[NMeNle][NMeNle]ECG[Pra]
# modifications: thioether N-14; not fully specified (C-terminus); printed as ClAc-Tyr-mAla-Asp-Pro-His-Gln-Hyp-Trp-Ser-Trp-mNle-mNle-Glu-Cys-Gly-[(S)-propargylglycine]
# notes: also called Intermediate 1400H
# Biological target: T1, Recombinant Human PD-L1-TVMV-His (human, UniProt Q9NZQ7 19-239)
# T1 construct: expressed in HEK293T cells; also called PD-L1-His; hPD-L1(19-239)-TVMV-His
# Test: HTRF vs PD-1-Ig; A = IC50 0.10-1.6 µM
# Protocol: (§1) Homogenous Time-Resolved Fluorescence (HTRF) Assays of Binding of Soluble PD-1 to Soluble PD-L1. Soluble PD-1 and soluble PD-L1 refers to proteins with carboxyl-end truncations that remove the transmembrane-spanning regions and are fused to heterologous sequences, specifically the Fc portion of the human immunoglobuling G sequence (Ig) or the hexahistidine epitope tag (His). All binding studies were performed in an HTRF assay buffer consisting of dPBS supplemented with 0.1% (w/v) bovine serum albumin and 0.05% (v/v) Tween-20. For the PD-1-Ig/PD-L1-His binding assay, inhibitors were pre-incubated with PD-L1-His (10 nM final) for 15 m in 4 μl of assay buffer, followed by addition of PD-1-Ig (20 nM final) in 1 μl of assay buffer and further incubation for 15 m. PD-L1 fusion proteins from either human, cynomologous macaques, mouse, or other species were used. HTRF detection was achieved using europium crypate-labeled anti-Ig monoclonal antibody (1 nM final) and allophycocyanin (APC) labeled anti-His monoclonal antibody (20 nM final). Antibodies were diluted in HTRF detection buffer and 5 μl was dispensed on top of binding reaction. The reaction was allowed to equilibrate for 30 minutes and signal (665 nm/620 nm ratio) was obtained using an EnVision fluorometer. Additional binding assays were established between PD-I-Ig/PD-L2-His (20 and 5 nM, respectively), CD80-His/PD-L1-Ig (100 and 10 nM, respectively) and CD80-His/CTLA4-Ig (10 and 5 nM, respectively). Binding/competition studies between biotinylated Compound No. 71 and human PD-L1-His were performed as follows. Macrocyclic peptide inhibitors were pre-incubated with PD-L1-His (10 nM final) for 60 minutes in 4 μl of assay buffer followed by addition of biotinylated Compound No. 71 (0.5 nM final) in 1 μl of assay buffer. Binding was allowed to equilibrate for 30 minutes followed by addition of europium crypated labeled Streptavidin (2.5 pM final) and APC-labeled anti-His (20 nM final) in 5 μl of HTRF buffer. The reaction was allowed to equilibrate for 30 m and signal (665 nm/620 nm ratio) was obtained using an EnVision fluorometer.
# T1 sequence (Q9NZQ7 other isoform, or with tags, fused parts or gaps limits assumed): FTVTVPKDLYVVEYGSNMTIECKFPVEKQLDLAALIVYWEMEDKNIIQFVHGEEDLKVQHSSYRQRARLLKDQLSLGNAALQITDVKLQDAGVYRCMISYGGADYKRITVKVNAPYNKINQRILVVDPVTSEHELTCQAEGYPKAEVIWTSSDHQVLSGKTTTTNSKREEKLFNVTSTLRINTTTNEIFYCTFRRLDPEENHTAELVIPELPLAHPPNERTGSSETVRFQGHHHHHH
row,Binder,IC50
1,{CH2CO}-Y[NMeA]DPHK[Hyp]WKW[NMeNle][NMeNle]ECG[Pra(3)]([triazole″-PEG4′-Suc-vitamin E])G (thioether N-14; reading uncertain) [Example 14060],100 to 1600 nM
2,{CH2CO}-Y[NMeA]DPHK[Hyp]WKW[NMeNle][NMeNle]ECG[Pra(3)]([triazole″-PEG8′-Suc-vitamin E])D (thioether N-14; reading uncertain) [Example 14057],100 to 1600 nM
3,B1,100 to 1600 nM
4,{CH2CO}-Y[NMeA]DPHK[Hyp]WKW[NMeNle][NMeNle]ECG[Pra(3)]([triazole″-PEG6′-Suc-vitamin E])G (thioether N-14; reading uncertain) [Example 14053],100 to 1600 nM
5,B2,100 to 1600 nM
6,B3,100 to 1600 nM
7,B4,100 to 1600 nM
8,{CH2CO}-Y[NMeA]NP[Dap]L[Hyp]WS[Bzt][NMeNle][NMeNle]RCG[Pra] (thioether N-14; not fully specified (residue 16)) [Example 14058],100 to 1600 nM

# Biological target: T1, Recombinant Human PD-L1-TVMV-His
# Test: HTRF vs PD-1-Ig; C = IC50 0.0003-0.0099 µM
# Protocol: as §1
row,Binder,IC50
1,B5,0.3 to 9.9 nM
2,{CH2CO}-Y[NMeA]NP[Dap]L[Hyp]WS[Bzt][NMeNle][NMeNle]RCGG[Aha] (thioether N-14) [INT-1300C],0.3 to 9.9 nM
3,B6,0.3 to 9.9 nM
4,B7,0.3 to 9.9 nM
5,B8,0.3 to 9.9 nM
6,B9,0.3 to 9.9 nM
7,B10,0.3 to 9.9 nM
8,B11,0.3 to 9.9 nM
9,B12,0.3 to 9.9 nM
10,B13,0.3 to 9.9 nM
11,B14,0.3 to 9.9 nM
12,B15,0.3 to 9.9 nM
13,B16,0.3 to 9.9 nM
14,"{CH2CO}-Y[NMeA]DPHK[Hyp]WKW[NMeNle][NMeNle]ECG[Pra(3)]G (thioether N-14; not fully specified (residue 16, C-terminus)) [Example 14064]",0.3 to 9.9 nM
15,{CH2CO}-Y[NMeA]DPHK[Hyp]WK[Trp(1-CH2CO)][NMeNle][NMeNle]ECG[Pra″]([triazole-PEG11′-γGlu-C18 diacid]) (thioether N-14) [Example 14092],0.3 to 9.9 nM
